Measurements reported in article PMC3488082 (The Journal of Biological Chemistry, 2012).

Biological target: the molecule itself
Test: crystal structure

Protein | stoichiometry N
Human aldehyde dehydrogenase-2 (ALDH2), wild-type (enzyme, thionitrate adduct on Cys-302 (GTN-soaked crystal)) SAAATQAVPAPNQQPEVFCNQIFINNEWHDAVSRKTFPTVNPSTGEVICQVAEGDKEDVDKAVKAARAAFQLGSPWRRMDASHRGRLLNRLADLIERDRTYLAALETLDNGKPYVISYLVDLDMVLKCLRYYAGWADKYHGKTIPIDGDFFSYTRHEPVGVCGQIIPWNFPLLMQAWKLGPALATGNVVVMKVAEQTPLTALYVANLIKEAGFPPGVVNIVPGFGPTAGAAIASHEDVDKVAFTGSTEIGRVIQVAAGSSNLKRVTLELGGKSPNIIMSDADMDWAVEQAHFALFFNQGQCCCAGSRTFVQEDIYDEFVERSVARAKSRVVGNPFDSKTEQGPQVDETQFKKILGYINTGKQEGAKLLCGGGIAADRGYFIQPTVFGDVQDGMTIAKEEIFGPVMQILKFKTIEEVVGRANNSTYGLAAAVFTKDLDKANYLSQALQAGTVWVNCYDVFGAQSPFGGYKMSGSGRELGEYGLQAYTEVKTVTVKVPQKNS | 4
Human aldehyde dehydrogenase-2 (ALDH2) triple mutant E268Q/C301S/C303S (enzyme) SAAATQAVPAPNQQPEVFCNQIFINNEWHDAVSRKTFPTVNPSTGEVICQVAEGDKEDVDKAVKAARAAFQLGSPWRRMDASHRGRLLNRLADLIERDRTYLAALETLDNGKPYVISYLVDLDMVLKCLRYYAGWADKYHGKTIPIDGDFFSYTRHEPVGVCGQIIPWNFPLLMQAWKLGPALATGNVVVMKVAEQTPLTALYVANLIKEAGFPPGVVNIVPGFGPTAGAAIASHEDVDKVAFTGSTEIGRVIQVAAGSSNLKRVTLQLGGKSPNIIMSDADMDWAVEQAHFALFFNQGQSCSAGSRTFVQEDIYDEFVERSVARAKSRVVGNPFDSKTEQGPQVDETQFKKILGYINTGKQEGAKLLCGGGIAADRGYFIQPTVFGDVQDGMTIAKEEIFGPVMQILKFKTIEEVVGRANNSTYGLAAAVFTKDLDKANYLSQALQAGTVWVNCYDVFGAQSPFGGYKMSGSGRELGEYGLQAYTEVKTVTVKVPQKNS | 4
